{"source": "IntAct's records for PubMed 20148946", "target": "T1, unkl_human UNKL (UniProt Q9H9P5)", "T1 sequence": "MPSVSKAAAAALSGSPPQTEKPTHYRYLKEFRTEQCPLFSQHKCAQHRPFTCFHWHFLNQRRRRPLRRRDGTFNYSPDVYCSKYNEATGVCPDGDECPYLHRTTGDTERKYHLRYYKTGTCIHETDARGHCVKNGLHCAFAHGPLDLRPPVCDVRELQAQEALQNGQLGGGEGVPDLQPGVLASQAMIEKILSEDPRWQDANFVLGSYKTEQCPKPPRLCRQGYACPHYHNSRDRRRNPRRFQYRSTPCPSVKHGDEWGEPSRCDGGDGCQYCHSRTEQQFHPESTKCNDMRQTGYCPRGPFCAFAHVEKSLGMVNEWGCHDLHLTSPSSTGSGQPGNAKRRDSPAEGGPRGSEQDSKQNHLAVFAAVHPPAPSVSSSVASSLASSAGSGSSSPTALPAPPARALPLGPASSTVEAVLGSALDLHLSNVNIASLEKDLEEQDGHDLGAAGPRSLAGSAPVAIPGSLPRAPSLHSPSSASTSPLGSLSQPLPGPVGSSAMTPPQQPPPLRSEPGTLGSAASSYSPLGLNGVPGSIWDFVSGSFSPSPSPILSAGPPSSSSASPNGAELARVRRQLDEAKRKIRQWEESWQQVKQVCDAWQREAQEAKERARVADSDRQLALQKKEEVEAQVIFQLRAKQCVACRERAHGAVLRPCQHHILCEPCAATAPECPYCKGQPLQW", "data": [{"substance": "Ras-related C3 botulinum toxin substrate 1 (Homo sapiens) (from UniProt P63000) Q61L", "values": [{"measurement": "effect of a mutation on the interaction", "result": "increasing interaction"}]}]}
